In the DeepSol protein solubility set:

assay: soluble on expression in E. coli; label from the status in PepcDB or PDB records

| Sequence | soluble on expression in E. coli |
| --- | --- |
| MGSDKIHHHHHHMKHYALLISFLALSACSQGSEDLNEWMAQTRREAKAEIIPFQAPTLPVAPVYSPPQLTGPNAFDFRRMETDKKGENAPDTKRIKETLEKFSLENMRYVGILKSGQKVSGFIEAEGYVYTVGVGNYLGQNYGRIESITDDSIVLNELIEDSTGNWVSRKAELLLNSSDKNTEQAAAPAAEQN | not soluble |
| MGSDKIHHHHHHMKIGFLSRWGATCGVGMHAEILAREFIRMGHEVVVFAPTEESASKEVKYYKRTEAQDPEFVKREIYTEVDNVTEEGWVKEEEILKENLDLLIIETFWRVPVKPLTRLIEKLKIPVISVFHEANIFKAREVVKLPCDKIVVFDRRFYDEILEFYEIPREKVEVISYPVMKPYDAEPERPVSEDKFLFFSFGRQPVEEYCDFLNALKKLRKRFDNVHYWIIRSDGRVDYEAEWITQWQKRPTVEKLYSYLKGSNVHLLPKGNTPNVVVSSTLYQIIASETPIVIRDSRFVETIETDVYGFGPIVKYRNIHDLVHKLELLMLDRELVEDIKKEVRVFVEKYGGDKIAQEFLDLAKTITK | not soluble |
| MGSDKIHHHHHHMKIILGIPDLKIPVWTFKQPLMINQLNWDRPSWENETWVDSGGYQIMVRGIKVEIEKVVEKYKILDATQYMSLDIPSIPCHKPSELNYKYFEYLYTVFDKKIVPVIHAYDPESIKKSIDFYSQYTDLVAFGGIVPPTLNKSGNKKLAVAIYYLVRKLWKGKIHVLGAGSPFMRKVYFNADSVDTSTYRVKGIHGMVIIPGKGERYVGNRKIVWGTKRASEEELEILLSFLDKTHYPFQIRFDNWIDRSLINAWVLLNSEYESNNPLIRYSKKLDTFAEDEIEEEVNELCM | not soluble |
| MGSDKIHHHHHHMKILFISSLYAPDIGGGAEIILQRTVEGLQQRGYSIAVLATTDRPGLQLAEVNRVKVYRAGLLNQYWHFMPQRPERLARFAWHWRDRYNGGMRDYVRQVIELEQPELVVCHNLTGWSVSAWDEITRANRPVVQVLHDLYLLCPSSTMFKKGQSCQRQCSLCTQFRKHHAQQSEQVSTVVGVSRFMLDTLQAQGYFKGARGYVVHNASPFTPPHAGQTKAADDTAPLRFGYLGTLSENKGVGWLINQFQHLPFKATLQIAGRGQSNDEKRFRAMATSPDISFVGFQKPEDFYQHIDVAIVPSMWNEPFGLVAVEACAHSRPVIASRMGGLPEIIQDQLNGLLCSPDDPDSLGLAMLKLHQQPELLARLGSQARNSVASLLNLDLMLDQYESIFAQTLQDRSTWHGERVQLDPG | not soluble |
| MGSDKIHHHHHHMKIPRRLEPLLEDGLIDGVVRQLMSGKEAMVFAVRCGDEIRCAKVYKEANKRSFRQAVDYTENRKTKNSRQARAMAKGSKYGRQMQEAAWQSAEVDALYRLAAAGVRVPTPYNFHEGVLLMELVADADGNAAPRLNDVSFTEGEALAHHQTLIREVVRMLCAGVVHGDLSEFNILVGADGPVIIDLPQAVDAAGNNHAQAMLMRDVHNLRGYFGQFAPALLTTRYAEEIWALYEHGSLHPEVALSGQFECEMPPVDLEGVMREIDDAREQEAARLLRLQELS | not soluble |
| MGSDKIHHHHHHMKISEFEGPLDLLLHLIRQNKMDIYDIPIAAITQQYLDYLHSMRALKLDIAGDYLVMAATLMTIKSRFLLPQPEPDEMDEDNEDDDPRDSLVAELLAYKVYQEAAGELREKEQARHQHFTREAMLVPADLSAPKLTAGITLDDLQAAFRQLVAKRRRVRPLTKTVVAETINIDERMTQITTQLQHQPQGLDFADLFTVSASDEMLVTTFMAVLELTKQDQVALQQAEPLSPIHLYLRQDEQHDEH | not soluble |
| MGSDKIHHHHHHMKISGHTSVVVAEKLLSEAKFSNLTQSAVVMISQRLCLGIILTGFITNQALAAEPKQSVVPISSVLATNYNKTQIHVTPVHSLVPKLSTKRANFKQETTTQDSVYLADWVLDSGDNQQMPFAIVDKKAAKVYVFDALGQLTGAAPALLGLAVGDDSIPNIGNMALASIKPEQRTTPAGRFVVALGKNIHNKEVLWIDYDAAISLHRVVTSSPKERRLQRLESQNLLERRISYGCINVPVNFYDQVVSPAFTGTNGVVYVLPDTRSIQEVFGSYSEPPRVYRRQIYLSQAAMPDRVKLS | not soluble |
| MGSDKIHHHHHHMKIVYIITQATWGGAQAHLYSLIKAQVMRGNAVALVYGVEGRLSASVAKEFQDVQVVRVASLVHPIAPLSDLKAIYTLRKLVKNWQPDIIHLHSSKAGMIGRLATIRLPMKVIFTVHGWGFTPGVGKKRQLLMKTIEKALSRLTTAYICVSQFDYDLGVQSGVITSAHPARVIHNGVTALTGANKATSSEVFVLSMAARFDTPKRQDILIQALTYLPENLPIVCHFLGDGPSIEACKTLTHQLNLDGKVNFYGVVDNVQKYYSQSDVGVLISDYEALPISLVEALAQGLPIIASNVGGIQELIDHNGFLVTNDARQIAEKILTLYQSKKIAEVKTNSYQMYQRHYTEHEMLEQTQAYYLRCLA | not soluble |
| MGSDKIHHHHHHMKKHLNTLFVTTQGAYLSKEGETVVVKVDREVRLRVPVHTLGGIVCFGNIGCSPYLMGFCAEKSVCISFLSERGRFLARVQGPVSGNVLLRREQYRRADDPEFSAIMARYVLTGKIANCRTVLQRALRDHQEKINADSVRQAVDHLGRCLTSLGREKSLDNLRGIEGDAAHRYFSVFNELILMQKDAFIFDERNRRPPLDPMNCLLSFAYTLLVHDIRSALEAVGLDPAVGYLHRDRPGRPGLALDIMEEFRPFIVDRLVLSLVNLRKVQAKGFKKSESGAVQMDDDTRRTLLVSYQERKQEEMLHPFLGERTTFGLLFHVQAMLLARYLRGDLDGYPPFIYR | not soluble |
| MGSDKIHHHHHHMKKIAILYPAHYEQSSGGAEIQILYLINACKQQNWEIHYIFEDKGTDIKNKENIVLHPLCKMKNYKFCGKGWFLYEKQILRELNAIKPDTIYTRIGSSWIGIATSYAKNHKVKHAHALASDSSVTRKLLGKPLYPLFSQIETYYINKGLVGADVIIAQNVFQQQMLSKRYGKESILVNQMTPSVDESCLQKKYNKIKIIWVANFKELKHPELFVQLAKDLKGHSDRIEMYMCGRSTSKYNNLLQDLNHIDYLNYLGSLDQEQVFDLMNEAHILVNTSEYEGFSNTFVQAWMRKVVVVSMNSNPSDILTSQGIGFLTPNMTNLVATIHKLIEHPEIISELGEKSYQYALENHDLNKNMKKIIEVL | not soluble |
| MGSDKIHHHHHHMKKIIYFITLLFLVGCVDLSENMYNDLGKDNYYQTEQEYDAAFMNQYAFLRTMYAWNVFYLQEITTDEACLPQKGRDGYDGGIYQRMHWHTWTDQDVIINGAWQELFKAVGFCNQVLNDLNNSRSDILPENKKKLYIAESRALRAFFYSMLVDMFGNVPIVEKVSELNPPTKTRTEVFNYVEKEIAEVKDQLLRSTDTGSYGRFTQEAALALLSRLYLNAEVYTGTSRLDDCISVSQTLLQKGYQLESTWDAPFAWNNENSKENIWVIPNDEIVANEMSVLFYRNIHWSQRSQWDWKNPNGGWNGVCTVREFIETYDITHDRRCKYDPQNGMYGQFMWGPQFDLSGNPILGTNEYAGQQLDFTLDLPDMVNNKENAGARNIKYKVKVGAQGMENDFALFRIAEINFNLAEATLRKSNEVDSKALEGINKIRTRAGVSTYATGELTLDELYREKGREMCYETLRRTDMIRFGRFIQPMWDKNYTDKETINLFPIPLQATKLNPELKQNPGYTK | not soluble |
| MGSDKIHHHHHHMKKILVVSHGAALGGSPISGLNIGRHIDKNQFEVIYAFGEEREIFDIAKKEGFKVFFVPKRSYLTIWDYAKIICREKIDIVHLNTLTSYYKYPAMAAWLCRKKIVWFVRENPEEKRCVRLGKYINALADRIVTVSLDTAKKMFYANHAKLCTIYNGIDLKFKKIEGRERLCEELGLSAREKYILCVASLEERKGVKDLVRAFLSSLPKLQGYKLLIVGEDRTKEQRYFLELKELAKDSSEVIFYGKSQKIQQLLSLSELFVLPSYWEGMARVILEAMACGLPVVASDAGGNREQVMDGVNGFLFPPRDIQALSAALEKAILGGRTQLLGKNSRELLEKNFDIKETTKKIENLYKAL | not soluble |
| MGSDKIHHHHHHMKKKDMNKQVKIQDAVAAIILAEGPAGVSTTKVAKRVGIAQSNVYLYFKNKQALIDSVYARETNRILSTTDLDRLSDSTIDVTTRIRLYVQQVYDYSLANPDSLTIIQQIKALNGQGMTISAADADPNNIVANLLTAAIDAKVIKQLPVSLHMGVVFSTIHTHTTNISKGRYAQDQYTFGDIFQMIWDAMKQD | not soluble |
| MGSDKIHHHHHHMKKMTILSAAVLMALGAPVAMAKVSEAEAAKLGAELTPQGAVKAGNADGSIPAWDGGITTAVAGYSQGMHHPDPFPTDKILFTITNANKAQYKDFLNPGQVKLFELYPETYKMNVYETRRTASVPQYVYDATKANATRAELIAQGNGISGATIGVPFPIPANGLEVIWNHVLRFRGVDLETNRSQASPTADGSYTLVETAEELRFEYSRPEITLDKLKETNTLFFFKQVVTQPARLAGTALLVKETMDQEALPRQAWTYNTGQRRVRKAPNIAFDTPGTVADGLRTTDDFDMFNGSPVRYNWELVGKKEMYIPYNDYKLHSDSLKYDQILKPGHINPDLVRWEKHRVWEVKATLKAGMRHIYKTRVFYIDEDSWQVSLTDMYDNRDELYRVANAHSINYYEVPTLWTTLEVFHDLQSRRYLAMGLDNEGRMYNFKANLTESNFTPDALRRAGIR | not soluble |
| MGSDKIHHHHHHMKKSTLIDKFLDLLSSRSSLREIQNNFIDANIMRDSSINQKYNGQRKSLAWEYISTLNLEDEAEFSKLLNVIETYLFQWNLYIHEVDEDEEINRLIKIINVLGYEYNKDTGKITKNEREVNLSTIKSLAIKFDIEYVLKECNRIEKEALTDPEDAITSAKSMVESTLKHILDSEGEKFNNNETLRGLYKKVSNIMNLSPGGHNENTFKTILSGMINVINGLDEVRNEYGDAHGKSKKNYRPETRHAFLAINAARTITEFLLASYKK | not soluble |
| MGSDKIHHHHHHMKKYFPSSELIINEDGSVFHLHVKPEWLADKVILVGDPGRVALVASHFENKECEVESREFKTITGTYKGKRITVVSTGIGCDNIDIVMNELDALANINFETREEKEKFRQLELVRIGTCGGLQPNTPVGTFVCSQKSIGFDGLLNFYAGRNAVCDLPFERAFLNHMGWSGNMCAPAPYVIDASEELIDRIAKEDMVRGVTIAAGGFFGPQGRELRIPLADPKQNDKIEAFEYKGFKITNFEMESSALAGLSRLMGHKAMTVCMVIANRLIKEANTGYKNTIDTLIKTVLDRI | not soluble |
| MGSDKIHHHHHHMKKYLTLAASALLLAACSEKPGYEINGTVANTDLNGKYVYLYEYGVQDAAPMDSALVQNGTFTFKGTQSAPALRKLAFAEDVVEPKRAASGENAPFTSVFVLENGKLQAVLDEAASAVSGTPENDGLKALQAQMKTLRADLEKLSADMKSEDKEVVSAAEKKYDEIDQKVTDAVKTYILNNTTKQSAAKLLYDFRYSLDEAAQNEIIAKADSAFKAVPNIDKLMAHLDVLKTVAVGKKFVDFEMADPNGKTHKLSEFVGNGKNIVLIDFWASWCPPCRRDMPNLVAAYKKYKNKGFEIVGISLDSKADAWAKGVKDLNITWTQLSDLQGWKNSGAQLYGVNSIPHTVLVDKDGTIIAKNLHGEEIDAKLQEILK | not soluble |
| MGSDKIHHHHHHMKLAFICTEKLPAPAVRGGAIQMMIDGVTPYFSSRYDLTIFSIEDPSLPKRETKDGVHYIHLPKEHYREAVAEELRASSFDLIHVFNRPLNVSLYKKASPNSKIVLSLHNEMFSEKKMTFAQGKEVLDNVSMITTVSEFIKQTVIERFPEAEDITKVVYSGVDLNSYPPVWTMKGSAVRKTYRKKYGIEDKKVILFAGRLSPTKGPHLLIHSMRRILQQHPDAVLVIAGGKWFSDDSENQYVTYLRTLALPYRDHIIFTKFIPADDIPNLFLMADVFVCSSQWNEPLARVNYEAMAAGTPLITTNRGGNGEVVKHEVTGLVIDSYNKPSSFAKAIDRAFTDQELMNKMTKNARKHVEALFTFTHAAKRLNTVYQSVLTPKNKQFPPPFLTQNFDLSSINQLFVKAKT | not soluble |
